Source: the domain aggregation screens of Martell et al. (2025)

Assay: soluble fraction after stress (log2 fold change); higher = more stays soluble; pooled small domains, quantitative proteomics
Conditions: stress: 75 degC
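Further: 20 min heating vs room temperature control held 20 min.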

| Sequence | soluble fraction (log2) |
| --- | --- |
| HMQAKQVAIPDVANYSVTDAIKKLQDAGFIVSDEQREEANETVSEGKVSRTSPAAGSIRKEGTEIILYKSL | 0.361 |
| HMQALDETTVSRIRQKAAARNLLLKVLAGQLGVARPTLSNVLARREAPSAALAARIRAFLDSP | -1.45 |
| HMQALTLVGQDAKDAKAALDAVDIQPAKTETDRYIYVLTEQQAQELGRTVDALYGVEGSLTLILEV | 0.253 |
| HMQAQQYYMLLMNKATSALKIEALGANSNKAHQSFGTKTAGGSAVYWGILFNSNGKIYKIVG | -3.06 |
| HMQASIPQSQKDALAKELQALPPHGRNRVLSTFRQQFNISSEKISEFITTPEHLSFIRSKIAEVESDS | 0.267 |
| HMQDENAVTYLLEIKNADANDIASVLKTLKSPDADVVVYKTLNMIIFTGQGSEINGLVKVARQLDRK | -2.04 |
| HMQDGVNLENIEQKLSTLGVGKAQYFLQNVGGNKFNAYMALNTDGVEGYQKGSDTLIEIKNVE | 0.215 |
| HMQDKIWVVDETQLYPKLIEAMSEGKAVIHDGVAYWAEGSGKTGVIQHLPFKETTVQNVEEAIKLAQ | 0.0953 |
| HMQDKLLRKKEVLEMVSITNSTMYRMIGSGQFPRPIRLDNANINSGVRWKLSEINTFIEQRF | -0.513 |
| HMQDLAKRWVEEFGDLLYKYTLPRVSDSGIAKDLVQETFLAAWRNIDNFKGEASEKNWLFTILKNKIIDH | -0.382 |
| HMQDLTAQQQAILSFLKEHPKATRKEISENIPNITEDNIRYNLSQLQELGFVKSMGDSFIRIAI | 0.534 |
| HMQDNDLKNQIENVLRTYPDNVFTVEKIADVLRSHGSAAFKLIVQELASLERDKVAVVTEDGKFQLNPD | 0.261 |
| HMQDPTAVISRVLEERKHQPGALLPILHGIQDALGYVPREAVAQIAQALNLSRAEIHGVVSFYHHFR | -0.59 |
| HMQDPVWVDWLGENDWFQKDPKRRGLANGYSEILRAEQPELVGRPFLDEVTRRVQADFPELFG | -0.944 |
| HMQDTRSHARKMLAAIEALLEGRSGSDIQAYTIHNRSITKMTVPELVKWRSYYQQQVRSEDAAASLA | -0.61 |
| HMQDTYLYPVQHNGKVRLQVELPAKGLPEDLVRLALAHPKVVEWLNGRIPTKTIAVPGRIINMVLPNQ | -0.638 |
| HMQDVWEPFLAKGYVFADGMLTKLIHKRGDVYKTQEIGSDKIIYVIKDGDTFAHGKTVKAAMLDLAFKKS | -1.5 |
| HMQDYISAEEAKSAALSASQVDSAGAAFSAAELGEKNGIPYYEVAFTADGLEYRYAIDAQTGTVIESSSSG | 0.156 |
| HMQEDKVRKLTEMGFAEDQAREALRKHDWDETMALNSL | 0.262 |
| HMQEDSNISFVKIHVDADSGMAHKKLSKLSLPTGFLIVVIIRGEENIIPNGETEVLPGDLLVAAAREFEN | -1.31 |
| HMQEEELYPRLEEVINQHRGKGEDLIMVLHKAQNLFGYLPRRAQEMVAEGLNVSLNEVYGVITFYNFFST | 0.194 |
| HMQEERDISFIKIHLEPGHPWRGRALRELMPLKDLLIVMVVRGEDTIVPNGDTRLEEGDLLVLAAYPFEE | -0.834 |
| HMQEHAHLWRLMEDNRSFKADYIAFENGIVLLQNLSSGKISQYPITDFSIEDQLLILKRHELTAHINAN | -3.3 |
| HMQEIKPEPISDGRVWKEGMWATTPLGIEGQLLSDPDEKGMVQLGYGNMRININIQDLDPSR | -0.104 |
| HMQEISQEEALATVLKDLSLTEADLKDLQITREEDKYKILFSKGQTAYDVLVSAKDGQLLQSKQETI | -0.313 |
| HMQEKQIIDGREFYIHQVERGITLYSIAKQYNVKVADIQAENPFLEAGLQPGQTLKIPLDKVETVQEIK | -0.218 |

| Sequence | soluble fraction (log2) |
| --- | --- |
| HMQEPIAVPDFINKSAVDVLVNPVFTQNFKLVSEDVYDDKVPEGYIVGQSVKSDTLVQPGTEIVIYV | 0.224 |
| HMQEPNYQPLMQNIKSQDLEEVTRLLSLNDVKFKIDHRTGLLLVESSRVYEAKMKLAATGITD | -1.07 |
| HMQEPVHFTRRERQVLSLILSGQATAEIAKTLGIANATVTTYKKSLYSKSGTNSLSRLLIWAMVRR | -0.463 |
| HMQEPVYRPVFPGMTDADRQSAMEALKEGGFSPRLNRQTGQLEVDASGYHEAKIYLASQGIPAE | 0.0608 |
| HMQERNYIVRRGDTLWDLAKTYYGSGTKYTVIYDANRDNIEAEAKRRGKQSSNGGYWIYPGTELTI | -0.348 |
| HMQERTVVKGVVVQVSRDEAYVDIGYKQEIPVSKRDLAVPAPDDARDVVKVGDEIDVYIKSLGGDNGG | 0.109 |
| HMQESTPGEGYKWREDVLLRVMSQNGIDESLRDEFVRHAVNYDIDDNMYLKKAEIESAAEAWVLENS | 0.172 |
| HMQESVTVSAQALRRLLEKGDGDAALLYLALLRHHGTIQPRALAGELRWERPRIEAAEEALRQMGLIA | -0.48 |
| HMQETMTNDEVISLTKAGLSSSIIIGKIRSSATNFDLSTDSLIKLKQAGVSDETVAAMLEAKS | 0.0249 |
| HMQGAARGMLFAQAQRWMTKFRIDPQQADRITQAALDPAQTDAILREVRRGYGPSAERALRGIIRRARRA | -1.94 |
| HMQGEAMQETVKKLDAFLQDNSVSMSALARALGVSPSLISQFRSGSYKGDSQAIAAKINSYIDNHNKKSK | -0.0127 |
| HMQGEKDDLWREVLDNPDAWWDNRERKNAPGGNPRYPDFKHKDSQTPLWIESRDTPQWAIDALL | 0.259 |
| HMQGNGKVATELLKDIIASDNLYINAMRMLVMHYNSKGTNQVEMVKLLHNILDLVPDDEYANEILKSAKKA | -0.0872 |
| HMQGPDPYAVLGIDRHADERAIKRAYRKLISEHHPDRLGDLPEDMRKRAESRASEINAAYDRIKEARGF | 0.0522 |
| HMQGQVLQETARKARSQLDSEIPGFNDALYQNLIKSSENYGYKAEEVAQWVDPRAIKVLNDAYQFQQLKAG | -0.172 |
| HMQGTTTELLIQKSALYEELNDPEKALNAMFDAFEMDSLNVNVLHRIVSLLLDKEENEKAILYNQLIIDH | 0.0862 |
| HMQHQSGLKSGEFEAISQQLQALLKENPLSLQEIKDKMQVTENHLIKVVSYLVSEEIIRQENGYLK | -0.976 |
| HMQIAGLDDIDNRIIDLLLKNGRASYSEIGAAVGLSRTAAKNRIRALEASGIIRGYQAILDPQA | -0.708 |
| HMQIDDSVELSAIVEKLLAANPEQVEQLKNGKTKVLGYFVGLAMKETQGRANPQKVNELIQTHL | -0.519 |
| HMQIDRLFDIVYTLLRKKSATAAELAERFGVSKRTILRDIETLSVAGIPILTSPGKGGGVSISSSF | -0.892 |
| HMQIIETTVGRVLFNEKVPEAAGYINEVLTKKSLRDIIHGILKKTSVPETAAFLDEIKSLGYNFAF | 0.0925 |
| HMQIIEVPYSEFLKKLESGQISEVSRDSYQIVFTDRSQPPIIYKTGLMEDPGLVDKMQEAGVTFTSP | 0.256 |
| HMQIKNVDYGTFLDMLDEKNVKEVEIEDEQIVFTDNADPTGYYTTGRMEDPDLVDRLHNSGATFSAI | 0.134 |
| HMQILLASHAELAKGILSAVELIAGTQQNLKAYSAYTEAVDVHFKDQMLQDLNKMDPEDEVIL | 0.137 |
| HMQINLSEWVLAAREYAGPEMTQEKLAEHLGRTKANVSAMENGRSKPSFEQMMEIHRVTGYPLPYQ | -0.303 |
| HMQISDAGALLDAVRRVLAENPAQVEQFRAGKEKVMGFLVGQVMRATGGKANPQMLNDVLREELS | -0.196 |

| Sequence | soluble fraction (log2) |
| --- | --- |
| HMQISDEGELSGIVRKIIDANPQSVADYKAGKKKAIGFLVGQIMIETKGRANPASVNELLIKKLE | -0.434 |
| HMQISDNTILEDAVSRIIDENPKSVSDYFQGKEAVVGFFIGQIMRETKGTANPKIAREIVISHLEAI | -0.576 |
| HMQISGIHLYERRITKDDEWAERKLSEISLAGSLVILILRNEHVVIPNGETVLKENDLLYISD | -3.66 |
| HMQISGSEELEKIVQTVLEKNTDVVEEYKSGKTKVFAFLMGQVMKESRGKANPRLAKDILEKFLA | -0.429 |
| HMQITAPVQKIDGVEYYMHKVEQGQTLYSISKLYNVGVKEIQKANQLGTEGIQLGQVLKVRKGG | -0.2 |
| HMQIYLTPEQFKIIDFMEQMGKITVKDVMDILNIPKRTAQLHLQKLKTLKMIAQTGKGPSSAYLL | -1.11 |
| HMQKDAYVPDIISKLKSSRMIVVEGTIYPLLTRLKNTGLLSYRWEESLQGPPRKYYSITEQG | 0.268 |
| HMQKDYKTRLQEYYAKVGKKVNYMDSSTGPDHDKKFQTQVFLDKEIIGVGEGKSKKSSQQEAAKQALEKI | 0.267 |
| HMQKFINQEHEKAYNLMLEKDYQQALKIFDDLIYLFPNEANLLSDRGVIFIHLNKKEAALQDFDQAVF | -1.97 |
| HMQKIEKVDYGTFLKMIENGEIDQVNLTEKKISFTTDKDAETVYETGRVEDPNIVDRLYQADVEFTQEI | 0.598 |
| HMQKIENYDQFVQAFKRLSGLDLKLYKENQMKRRINNFINNHGFKENYDQFFQAITGNKELYNAFFKHLTI | -0.527 |
| HMQKKYLAVKEYLLEQINSGAYQPDEPIPPEREMAAMLGVNRMTLRRAVEELMYEGLLIRKKGSGTFLTK | -2.03 |
| HMQKLSPKQRRGNIIELIKENPTITAKNISTIFNLNQRTIERDLAKLTEEGYIKYEGSSKDGKWVFL | -0.134 |
| HMQKNKSVLFKDIVIAFNQNPKKLFNYKQLAADLDIHSEAERMLISQLLNDLKDQNFLEEVERGKYKLKL | -0.766 |
| HMQKPIKPVKMHTVGPKENLSSIGRMYEVNGRVLANYNNIDYDKGLTIGQVLKIPPKGTTLEQVT | 0.853 |
| HMQKTIDWSQVDKEQYLSAMERSPVNDLEIKAILAKALTSDINNRELFMKGLDHSYYFEGYQLFKSE | -0.526 |
| HMQKTQVVEVAGKSYQLTKMDARTGSYVAFKVAGVLAPSGGKTAEMAAALMGMPRKDFDELQSLLLRTV | 0.025 |
| HMQKYSTIIGVIELRQSGIGYRTTKKRYNIGNSTVTLIMNRFHELGLSLEELKAMPPKKVEEAFYPPE | -3.22 |
| HMQLASILDDIPGIGKKRKENLLTHFGSFSKIQSADIDALAEVPGISRDLAETIHTYLKTHQ | -0.0246 |
| HMQLDLSDPSKNKLDSIVSLPIKSLKAVEANGEILFMSENGRFVLRGQLYDIWYKDTLDTSAQIQDAATRI | 0.331 |
| HMQLDLTSTLDHMYKQMRNDHPRALLMAVEKEMVLRALKETDGNQLRASDILGISRSTLRKRIEEFDINS | -1.24 |
| HMQLEPLITSVIPVNFAKAGEVATTIKGKEVGLVSDRGSITAESRTNVLIVKDIKKNVDDISAMVKRLD | -0.00331 |
| HMQLGEEAGDELVAIVRSVINDNDKALADYLAGKSSALKFLLGQVMRQTKGRADHALVQSLLEAELEAL | -0.0341 |
| HMQLHDTMKRVYEALDISEQKLAESLGLKLSTIINWQKNGISKIGINKLNQTFGLDMQWILTGQGEPFI | -0.0293 |
| HMQLLDIGSAVRIIREPYFGRLGTVVELPPELMEIESGTHARVLKAKLDDGTVAVVPRANVEIIVE | -0.785 |
